Results as given in article PMC3406103.

Test system: C/EBPβ (endogenous, HaCaT nuclear extract)
Assay: EMSA
Conditions: 10 mM Tris-HCl pH 7.5, 50 mM NaCl, 1 mM EDTA, 15% glycerol, 1 mg/ml BSA, 25 µg/ml poly(dI-dC), 11.5 mM DTT, 26 µg/ml aprotinin, 1.5 mM PMSF, 0.5 mg/ml salmon …; scale: % of pLXSN control, normalized to C/EBPβ level

Substance: CCL20 promoter nt 734-748
- binding signal: < 50
